These results are taken from publication PMC4165486 (Vaccine, 2011).

Data set [1] concerns the molecule itself. Nature of the data set: AUC.
Data set [2] concerns the molecule itself. The experiment in a line: AUC. The source holds these as a separate data set.

B1: poly-epitope P181 (P90-DEG-P77-DEG-P27) (peptide)
chain: TKKLNKELSEGNKELEKLEKNIKELEETNNTLENDIKVEKLKKYNNEISSLKKELDILNEKMGKCTKKRNVEEELHSLRKNYNIINEEIEEIT
modifications: derivatized diethylene glycol (DEG) linker inserted between P90 and P77 and between P77 and P27
As for B1, the “stoichiometry N” value in the data set “AUC [1]” is 2. In “AUC [2]”, the Kd amounted to 115 µM.
